In publication PMC11259171, “Huntingtin is an RNA binding protein and participates in NEAT1-mediated paraspeckles” one finds Kd data, which are given here for 1 molecule.

The target in the data set is mHTT-HAP40 Q54 (expanded mutant huntingtin with HAP40) (UniProt P42858;P23610 1-38+=QQQQQQQQQQQQQQQQQQQQQQQQQQQQQQQQQ+39-3142;1-371, internal_change). Nature of the data set: fluorescence polarization (method implied); 20 mM Hepes pH 7.4, 50 mM KCl, 2 mM MgCl2, 1 mM TCEP, 2.5% glycerol, 0.005% Tween 20; SPR 20 C, EMSA on ice, FP 10 min (temperature not stated). Conditions: protein: recombinant; copies: 1;1; label: 5'-FAM (FP, EMSA); biotin (SPR).
Sequence of mHTT-HAP40 Q54 (expanded mutant huntingtin with HAP40) (P42858 other isoform, or with tags, fused parts or gaps | mutant, chain 1 of 2): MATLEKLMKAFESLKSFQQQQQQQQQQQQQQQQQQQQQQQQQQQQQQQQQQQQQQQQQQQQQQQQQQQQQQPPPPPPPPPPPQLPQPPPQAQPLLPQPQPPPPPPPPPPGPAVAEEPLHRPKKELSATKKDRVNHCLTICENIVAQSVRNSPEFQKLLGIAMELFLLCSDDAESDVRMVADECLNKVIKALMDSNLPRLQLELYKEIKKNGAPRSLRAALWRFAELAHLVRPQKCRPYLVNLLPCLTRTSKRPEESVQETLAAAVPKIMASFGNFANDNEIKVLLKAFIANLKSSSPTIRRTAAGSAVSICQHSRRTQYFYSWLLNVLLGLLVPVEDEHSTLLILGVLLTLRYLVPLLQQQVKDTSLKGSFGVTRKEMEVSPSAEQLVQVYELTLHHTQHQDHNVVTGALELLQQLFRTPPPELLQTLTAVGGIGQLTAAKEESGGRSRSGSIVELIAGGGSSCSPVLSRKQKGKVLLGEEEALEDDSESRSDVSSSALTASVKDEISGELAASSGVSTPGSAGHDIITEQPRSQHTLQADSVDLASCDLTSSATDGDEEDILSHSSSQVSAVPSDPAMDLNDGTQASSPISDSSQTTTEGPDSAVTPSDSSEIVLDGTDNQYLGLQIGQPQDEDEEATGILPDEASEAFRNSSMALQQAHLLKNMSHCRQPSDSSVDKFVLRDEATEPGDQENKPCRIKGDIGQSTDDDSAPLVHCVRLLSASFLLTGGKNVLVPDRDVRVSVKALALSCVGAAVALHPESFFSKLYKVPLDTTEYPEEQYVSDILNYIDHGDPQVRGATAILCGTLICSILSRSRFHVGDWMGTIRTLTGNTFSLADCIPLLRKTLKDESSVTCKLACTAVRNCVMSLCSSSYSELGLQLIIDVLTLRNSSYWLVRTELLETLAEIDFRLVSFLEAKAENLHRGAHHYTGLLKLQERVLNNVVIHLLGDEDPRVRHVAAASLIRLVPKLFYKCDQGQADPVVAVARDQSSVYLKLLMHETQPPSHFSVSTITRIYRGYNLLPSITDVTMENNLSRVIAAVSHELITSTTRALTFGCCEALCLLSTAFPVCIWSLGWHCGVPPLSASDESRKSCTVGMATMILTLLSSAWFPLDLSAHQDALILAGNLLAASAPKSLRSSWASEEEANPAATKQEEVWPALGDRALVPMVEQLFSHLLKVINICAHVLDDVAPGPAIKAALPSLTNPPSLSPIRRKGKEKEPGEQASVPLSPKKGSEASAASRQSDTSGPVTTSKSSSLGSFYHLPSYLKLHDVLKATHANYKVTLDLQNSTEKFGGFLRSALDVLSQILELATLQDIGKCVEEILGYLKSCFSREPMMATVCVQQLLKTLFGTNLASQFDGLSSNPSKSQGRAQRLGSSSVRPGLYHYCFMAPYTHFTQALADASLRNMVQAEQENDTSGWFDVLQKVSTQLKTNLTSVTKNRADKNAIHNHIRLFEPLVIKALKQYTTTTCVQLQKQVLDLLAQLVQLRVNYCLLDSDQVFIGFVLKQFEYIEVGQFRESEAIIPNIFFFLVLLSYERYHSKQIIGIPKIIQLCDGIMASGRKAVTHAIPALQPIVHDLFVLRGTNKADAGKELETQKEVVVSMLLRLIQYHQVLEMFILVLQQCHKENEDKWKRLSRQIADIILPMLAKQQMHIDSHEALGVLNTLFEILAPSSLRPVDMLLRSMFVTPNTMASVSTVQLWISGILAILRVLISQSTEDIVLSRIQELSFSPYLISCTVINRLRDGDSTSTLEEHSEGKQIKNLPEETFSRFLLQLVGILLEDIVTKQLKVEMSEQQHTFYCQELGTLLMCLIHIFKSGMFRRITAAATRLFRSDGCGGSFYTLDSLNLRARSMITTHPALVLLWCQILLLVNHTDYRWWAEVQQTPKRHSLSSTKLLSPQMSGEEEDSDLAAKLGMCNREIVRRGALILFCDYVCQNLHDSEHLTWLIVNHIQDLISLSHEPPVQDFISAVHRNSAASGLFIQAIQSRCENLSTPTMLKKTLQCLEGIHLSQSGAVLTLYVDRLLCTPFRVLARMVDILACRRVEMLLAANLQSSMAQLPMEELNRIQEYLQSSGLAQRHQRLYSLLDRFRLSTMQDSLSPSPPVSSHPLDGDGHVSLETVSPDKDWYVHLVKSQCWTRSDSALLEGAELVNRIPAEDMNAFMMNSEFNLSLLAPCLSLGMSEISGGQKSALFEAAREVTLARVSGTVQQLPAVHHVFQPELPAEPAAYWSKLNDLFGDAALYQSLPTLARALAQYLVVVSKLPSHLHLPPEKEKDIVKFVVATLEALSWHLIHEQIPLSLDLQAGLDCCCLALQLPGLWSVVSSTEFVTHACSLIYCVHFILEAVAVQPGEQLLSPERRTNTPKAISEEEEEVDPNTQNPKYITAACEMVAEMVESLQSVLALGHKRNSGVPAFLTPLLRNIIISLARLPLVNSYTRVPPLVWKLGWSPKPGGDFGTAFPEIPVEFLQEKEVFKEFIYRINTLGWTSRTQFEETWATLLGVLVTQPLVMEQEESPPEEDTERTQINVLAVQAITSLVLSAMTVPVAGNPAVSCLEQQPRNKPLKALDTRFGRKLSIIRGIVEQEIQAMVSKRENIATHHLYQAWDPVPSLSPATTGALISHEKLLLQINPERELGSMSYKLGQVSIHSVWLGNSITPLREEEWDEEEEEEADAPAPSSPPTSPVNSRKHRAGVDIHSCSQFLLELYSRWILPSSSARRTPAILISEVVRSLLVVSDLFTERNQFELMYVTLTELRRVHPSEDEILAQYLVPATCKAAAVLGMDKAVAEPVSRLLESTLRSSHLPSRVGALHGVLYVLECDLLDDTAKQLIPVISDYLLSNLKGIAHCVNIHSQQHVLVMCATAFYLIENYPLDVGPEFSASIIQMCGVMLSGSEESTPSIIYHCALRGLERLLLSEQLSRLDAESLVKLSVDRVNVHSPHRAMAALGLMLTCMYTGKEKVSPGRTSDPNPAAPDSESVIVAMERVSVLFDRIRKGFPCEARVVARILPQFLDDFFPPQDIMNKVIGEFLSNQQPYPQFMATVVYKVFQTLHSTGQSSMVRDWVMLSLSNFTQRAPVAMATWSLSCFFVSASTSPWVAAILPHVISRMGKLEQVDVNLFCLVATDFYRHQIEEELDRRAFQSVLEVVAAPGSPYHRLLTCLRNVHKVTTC
Sequence of mHTT-HAP40 Q54 (expanded mutant huntingtin with HAP40) (P23610 whole entry, change not shown, chain 2 of 2): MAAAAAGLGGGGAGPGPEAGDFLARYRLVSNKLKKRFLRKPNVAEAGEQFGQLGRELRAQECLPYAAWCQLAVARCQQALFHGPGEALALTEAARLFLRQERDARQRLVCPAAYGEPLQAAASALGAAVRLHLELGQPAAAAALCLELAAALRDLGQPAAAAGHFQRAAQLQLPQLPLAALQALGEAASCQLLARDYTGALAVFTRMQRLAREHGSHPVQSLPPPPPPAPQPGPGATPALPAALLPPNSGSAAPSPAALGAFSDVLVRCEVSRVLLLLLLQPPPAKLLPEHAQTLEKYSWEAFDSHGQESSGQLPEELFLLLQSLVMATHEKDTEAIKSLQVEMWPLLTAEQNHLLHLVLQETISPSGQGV

B1: 100-mer random ssRNA (ssRNA)
RNA: CACGUAUGAGAAGGUAUUUGCCCGAUAAUCAAUACCCCAGGCUUCUAACUUUUUCCACUCGCUUGAGCCGGCUAGGCCUUUCUGCCCGAAGUUUCGAUGG
As for B1, the dissociation constant (Kd) amounted to 500 ± 300 nM.
